From publication PMC7181197 come the findings set out here.

The target in data set [1] is T1, GFP-G3BP1(WT) (UniProt Q13283 1-466). The data set can be described thus: EMSA. Background: A gel shift assay detects complexes by their altered migration in electrophoresis.
Another data set concerns the target GFP-G3BP1(S149A) (UniProt Q13283 1-466, S149A). As to the kind of experiment: EMSA.
In data set [2] the target is GFP-G3BP1(WT);mCherry-Caprin-1 (human?;human?, UniProt Q13283;Q14444 1-466;1-709, |). As to the kind of experiment: EMSA.
GFP-G3BP1(WT);mCherry-Caprin-1, sequence (Q13283 whole entry, chain 1 of 2): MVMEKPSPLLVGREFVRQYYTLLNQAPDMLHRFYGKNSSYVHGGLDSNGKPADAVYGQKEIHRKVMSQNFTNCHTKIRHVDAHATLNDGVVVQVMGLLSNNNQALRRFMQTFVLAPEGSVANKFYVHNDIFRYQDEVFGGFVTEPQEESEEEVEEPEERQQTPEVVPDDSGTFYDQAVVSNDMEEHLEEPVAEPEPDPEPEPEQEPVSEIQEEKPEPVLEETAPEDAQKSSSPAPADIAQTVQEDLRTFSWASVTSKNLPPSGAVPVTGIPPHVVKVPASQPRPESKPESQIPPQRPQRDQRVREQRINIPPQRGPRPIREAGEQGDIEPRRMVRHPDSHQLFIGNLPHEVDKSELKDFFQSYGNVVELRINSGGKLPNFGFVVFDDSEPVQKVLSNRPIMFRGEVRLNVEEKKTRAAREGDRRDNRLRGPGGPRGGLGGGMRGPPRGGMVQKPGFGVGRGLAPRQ
GFP-G3BP1(WT);mCherry-Caprin-1, sequence (Q14444 whole entry, chain 2 of 2): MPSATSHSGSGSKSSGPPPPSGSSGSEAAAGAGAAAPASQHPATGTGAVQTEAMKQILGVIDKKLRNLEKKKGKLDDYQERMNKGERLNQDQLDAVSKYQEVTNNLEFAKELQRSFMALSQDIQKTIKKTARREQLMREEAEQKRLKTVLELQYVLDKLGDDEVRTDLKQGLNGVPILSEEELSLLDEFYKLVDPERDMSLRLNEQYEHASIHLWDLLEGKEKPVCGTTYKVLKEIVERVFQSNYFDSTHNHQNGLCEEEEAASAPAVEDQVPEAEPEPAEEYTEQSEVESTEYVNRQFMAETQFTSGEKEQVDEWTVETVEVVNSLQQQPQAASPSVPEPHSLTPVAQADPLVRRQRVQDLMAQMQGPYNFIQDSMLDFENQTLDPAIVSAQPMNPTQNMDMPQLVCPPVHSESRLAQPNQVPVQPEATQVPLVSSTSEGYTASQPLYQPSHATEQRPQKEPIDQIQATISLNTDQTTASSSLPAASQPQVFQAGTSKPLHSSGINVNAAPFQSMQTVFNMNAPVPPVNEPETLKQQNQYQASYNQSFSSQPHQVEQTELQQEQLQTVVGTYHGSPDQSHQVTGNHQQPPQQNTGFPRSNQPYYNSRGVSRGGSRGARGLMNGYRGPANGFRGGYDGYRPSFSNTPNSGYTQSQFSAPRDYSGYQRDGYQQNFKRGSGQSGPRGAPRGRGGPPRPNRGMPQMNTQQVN
Data set [3] has as its target T1, GFP-G3BP1(WT). The data set can be described thus: analytical size exclusion chromatography. On the technique in general: In gel filtration, larger molecules generally elute earlier.

T1 sequence (Q13283 whole entry): as the sequence (Q13283 whole entry, chain 1 of 2) above
GFP-G3BP1(S149A), sequence (Q13283 whole entry S149A): as the sequence (Q13283 whole entry, chain 1 of 2) above, with S149A counted along it

B1: A(60)-Cy5 RNA (ssRNA)
RNA: AAAAAAAAAAAAAAAAAAAAAAAAAAAAAAAAAAAAAAAAAAAAAAAAAAAAAAAAAAAA
modifications: 3' pCp-Cy5 ligated (adds one 3' C)
Take B1: the Kd with GFP-G3BP1(WT) [1] was about 2 µM; with GFP-G3BP1(S149A), about 1.9 µM. In addition, in data set [2], the binding result is “binds”.

B2: A(60) RNA unlabeled (ssRNA)
RNA: B1 RNA
For B2, in the data set with GFP-G3BP1(WT) [3], the binding result was “binds”.

A word on the Kd: it is a measure of binding affinity in units of concentration. A higher Kd goes with lower affinity.
